Source: US20150132314A1 (NOVIMMUNE S A, published 2015)

T1: cynomolgus IL-17F homodimer, His-tagged (cynomolgus, UniProt G7P4V0 31-163)
T1 sequence: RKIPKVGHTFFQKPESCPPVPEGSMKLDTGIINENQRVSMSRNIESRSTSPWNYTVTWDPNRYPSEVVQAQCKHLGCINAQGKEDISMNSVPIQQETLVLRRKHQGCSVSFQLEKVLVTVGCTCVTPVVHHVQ

T2: human IL-17F homodimer (human, UniProt Q96PD4 31-163)
T2 sequence (looked up): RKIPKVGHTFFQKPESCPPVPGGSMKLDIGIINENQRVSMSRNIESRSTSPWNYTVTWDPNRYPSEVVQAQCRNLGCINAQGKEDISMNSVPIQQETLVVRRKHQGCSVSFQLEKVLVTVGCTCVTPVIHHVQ


Columns and labels:
[1] = target: T1, cynomolgus IL-17F homodimer, His-tagged; experiment: cell-based or functional assay
human IL-17F homodimer = target: T2, human IL-17F homodimer; experiment: cell-based or functional assay

Row | Binder | IC50 (nM), IL-6 secretion by MEF cells stimulated with IL-17F (5 ng/ml) and mTNF-α [1] | IC50 (nM), IL-6 secretion by MEF cells stimulated with IL-17F (5 ng/ml) and mTNF-α (human IL-17F homodimer)
1 | 1F1 antibody (antibody, V domains shown) VH: EVQLLESGGGLVQPGGSLRLSCAASGFTFSSYVMSWVRQVPGKGLEWVSAISGRGGNTFYADSVKGRFTISRDNSKNTLYLQMDSLRAEDTAVYYCAKDDRRIAAGSFDYWGQGTTVTVSS VL: AIQLTQSPSSLSASVGDRVTITCRASQGISSALAWYQQKPGKAPKLLIYDVSSLESGVPSRFSGSGSGTDFTLTISSLQPEDFATYYCQQFNSYPLTFGGGTKVEIK | 11 nM | 1.1 nM
2 | 43G6 antibody (antibody, V domains shown) VH: EVQLVESGGGLVQPGGSLRLSCAASGFTFSSYSMNWVRQAPGKGLEWVSYISSGSSTIYYADSVKGRFTISRDNAKNSLYLQMNSLRDEDTAVYYCAREGYVSGTYYNYYYGMDVWGQGTTVTVSS VL: EIVLTQSPATLSLSPGERATLSCRASQSVSSYLAWYQQKPGQAPRLLIYDAPNRATGIPARFSGSGSGTDFTLTISSLEPEDFAVYYCQQRSNWSLTFGGGTKVEIK | 8.4 nM | 1.1 nM
3 | 2E12 antibody (antibody, V domains shown) VH: EVQLVESGGGLVQRGGSLRLSCAASGFTFSSYSMNWVRQAPGKGLEWISYISSSSSAIYYADSVKGRFTISRDNAKNSLYLQMNSLRDEDTAVYYCAREGYASGRYYNYYYGMDVWGQGTTVTVSS VL: EIVLTQSPATLSLSPGERATLSCRASQSVSSYLAWYQQKPGQAPRLLIYDASNRATGIPARFSVSGSGTDFTLTISSLEPEDFAVYYCQQRSSWSLTFGGGTKVEIK | 26 nM | 5.9 nM
4 | 21B10 antibody (antibody, V domains shown) VH: EVQLVESGGGLVQPGGSLRLSCAASGFTFSSYSMNWVRQAPGKGLEWVSYISGGSSTIYYADSVKGRFTISRDNAKNSLYLQMNSLRDEDTAVYYCAREGYVSGTYYNYYYGMDVWGQGTTVTVSS VL: EIVLTQSPATLSLSPGERATLSCRASQSVSSYLAWYQQKPGQAPRLLIYDAPNRATGIPARFSGSGSGTDFTLTISSLEPEDFAVYYCQQRSNWSLTFGGGTKVEIK | 8.7 nM | 2 nM
5 | 5D3 antibody (antibody, V domains shown) VH: EVQLVESGGGLVQPGRSLRLSCAASGFTFDDYAMHWVRQAPGKGLEWVSGISWNSGSRGYADSVKGRFTISRDNAKNSLYLQMNSLRAEDTALYYCAKDMVYALDVWGQGTTVTVSS VL: EIVLTQSPGTLSLSPGERATLSCRASQSFSGSYLAWYQQKPGQAPRLLIYDTSSRATGIPDRFSGSGSGTDFTLTISRLEPEDFAVYYCQQYGTWTFGQGTKVEIK | 12 nM | 0.5 nM
6 | 22F8 antibody (antibody, V domains shown) VH: EVQLLESGGGLVQPGGSLRLSCAASGFTFSSYAMNWVRQAPGKGLEWVSTISGRGGSIYYADSVKGRFTISRDNSKNTLYLQMNSLRAEDTAVYYCAKEEATWDFDYWGQGTTVTVSS VL: EIVLTQSPATLSLSPGERATLSCRASQSVSSFLAWFQQKPGQAPRLLIYDASNRATGIPARFSGSGSGTDFTLTISSLEPEDFAVYYCQQRSNWPPTFGQGTKVEIK | 10 nM | 2 nM
7 | 28B11 antibody (antibody, V domains shown) VH: QVQLVESGGGLVKPGGSLRLSCAASGFTFSNYYMTWIRQAPGKGLEWISYISSTGGNIYYADSVKGRFTISRDNAQNSLYLQMNSLRAEDTAVYYCARDGGVIISTAMFDYWGQGTTVTVSS VL: AIQLTQSPSSLSASVGDRVTITCRASQGISSALAWYQQKPGKAPKLLIYDASSLESGVPSRLSGSGSGTDFTLTISSLQPEDFATYYCQQFNSYPLTFGGGTKVEIK | 6.3 nM | 1.2 nM
8 | 5E12 antibody (antibody, V domains shown) VH: QVQLVQSGGGLVQPGRSLRLSCAASGFTFDDYAMHWVRQAPGKGLEWVSGISWNSGTIGYADSVKGRFTISRDNAKNSLYLQMNSLRAEDTALYYCAKELYISDWDSYSYGMDVWGQGTTVTVSS VL: not shown | 22 nM | 
9 | 41B10 antibody (antibody, V domains shown) VH: not shown VL: DIQMTQSPSSLSASVGDRVTITCRASQGISSWLAWYQQKPEKAPKSLIYAASSLQSGVPSRFSGSGSGTDFTLTISSLQPEDFATYYCQQYNSYPITFGQGTRLEIK | 18 nM | 
10 | 11C5 antibody (antibody, V domains shown) VH: QVQLVQSGAEVKKPGASVKVSCKASGYTFTIYYLHWVRQAPGQGLEWMGIINPSGGRTNYAQKFQGRVTMTRDPSTNTVYMELSSLTSEDAAVYYCARGEFSSGWLDYWGQGTTVTVSS VL: DIQMTQSPSSVSASVGDRVTITCRASQGISSWLAWYQHKPGKAPKLLIYAASSLQSGVPSRFSGSGSGTDFTLTISSLQPEDFATYYCQQANSFPLTFGGGTKVEIK | 2.9 nM | 0.4 nM
